Assay results taken from IntAct's records for PubMed 19474792.

B1: DYRK-family kinase pom1 (Schizosaccharomyces pombe (strain ATCC 38366 / 972)), Q09690 (parent)
chain: MGYLQSQKAVSLGDENTDALFKLHTSNRKSANMFGIKSELLNPSELSAVGSYSNDICPNRQSSSSTAADTSPSTNASNTNISFPEQEHKDELFMNVEPKGVGSSMDNHAITIHHSTGNGLLRSSFDHDYRQKNSPRNSIHRLSNISIGNNPIDFESSQQNNPSSLNTSSHHRTSSISNSKSFGTSLSYYNRSSKPSDWNQQNNGGHLSGVISITQDVSSVPLQSSVFSSGNHAYHASMAPKRSGSWRHTNFHSTSHPRAASIGNKSGIPPVPTIPPNIGHSTDHQHPKANISGSLTKSSSESKNLSTIQSPLKTSNSFFKELSPHSQITLSNVKNNHSHVGSQTKSHSFATPSVFDNNKPVSSDNHNNTTTSSQVHPDSRNPDPKAAPKAVSQKTNVDGHRNHEAKHGNTVQNESKSQKSSNKEGRSSRGGFFSRLSFSRSSSRMKKGSKAKHEDAPDVPAIPHAYIADSSTKSSYRNGKKTPTRTKSRMQQFINWFKPSKERSSNGNSDSASPPPVPRLSITRSQVSREPEKPEEIPSVPPLPSNFKDKGHVPQQRSVSYTPKRSSDTSESLQPSLSFASSNVLSEPFDRKVADLAMKAINSKRINKLLDDAKVMQSLLDRACIITPVRNTEVQLINTAPLTEYEQDEINNYDNIYFTGLRNVDKRRSADENTSSNFGFDDERGDYKVVLGDHIAYRYEVVDFLGKGSFGQVLRCIDYETGKLVALKIIRNKKRFHMQALVETKILQKIREWDPLDEYCMVQYTDHFYFRDHLCVATELLGKNLYELIKSNGFKGLPIVVIKSITRQLIQCLTLLNEKHVIHCDLKPENILLCHPFKSQVKVIDFGSSCFEGECVYTYIQSRFYRSPEVILGMGYGTPIDVWSLGCIIAEMYTGFPLFPGENEQEQLACIMEIFGPPDHSLIDKCSRKKVFFDSSGKPRPFVSSKGVSRRPFSKSLHQVLQCKDVSFLSFISDCLKWDPDERMTPQQAAQHDFLTGKQDVRRPNTAPARQKFARPPNIETAPIPRPLPNLPMEYNDHTLPSPKEPSNQASNLVRSSDKFPNLLTNLDYSIISDNGFLRKPVEKSRP
partner: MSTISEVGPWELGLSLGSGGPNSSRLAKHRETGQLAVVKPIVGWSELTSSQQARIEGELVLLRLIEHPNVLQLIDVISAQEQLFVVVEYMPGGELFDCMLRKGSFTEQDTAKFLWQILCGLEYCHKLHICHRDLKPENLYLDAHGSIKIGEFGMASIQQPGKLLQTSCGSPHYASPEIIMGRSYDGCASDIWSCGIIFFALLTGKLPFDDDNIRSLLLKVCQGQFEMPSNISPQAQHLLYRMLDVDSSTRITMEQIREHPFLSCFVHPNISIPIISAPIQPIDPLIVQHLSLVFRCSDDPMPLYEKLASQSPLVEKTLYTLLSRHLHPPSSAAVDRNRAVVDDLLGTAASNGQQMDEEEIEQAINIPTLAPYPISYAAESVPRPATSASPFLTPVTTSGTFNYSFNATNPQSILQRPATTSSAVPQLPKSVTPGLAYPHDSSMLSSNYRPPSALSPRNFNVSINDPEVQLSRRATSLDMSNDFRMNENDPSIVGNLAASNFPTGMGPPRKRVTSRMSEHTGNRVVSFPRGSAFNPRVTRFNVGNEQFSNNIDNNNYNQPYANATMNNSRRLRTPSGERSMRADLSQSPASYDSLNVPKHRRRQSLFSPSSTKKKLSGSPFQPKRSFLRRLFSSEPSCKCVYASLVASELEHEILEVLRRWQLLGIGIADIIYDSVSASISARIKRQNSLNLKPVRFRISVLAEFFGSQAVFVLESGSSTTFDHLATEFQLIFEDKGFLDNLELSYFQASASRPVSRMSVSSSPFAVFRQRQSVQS

Variants of: B1
Settings: with cdr2_schpo cdr2, P87050

effect of a mutation on the interaction | Variant
disrupting interaction | K728R
